Assay results as given in patent US20220372159A1.

Target: CD84 on CD4+ T cells of wild-type mice (mouse) (UniProt Q18PI6)
Experiment: cell-based or functional assay

UniProt Q18PI6, sequence (Q18PI6 22-329): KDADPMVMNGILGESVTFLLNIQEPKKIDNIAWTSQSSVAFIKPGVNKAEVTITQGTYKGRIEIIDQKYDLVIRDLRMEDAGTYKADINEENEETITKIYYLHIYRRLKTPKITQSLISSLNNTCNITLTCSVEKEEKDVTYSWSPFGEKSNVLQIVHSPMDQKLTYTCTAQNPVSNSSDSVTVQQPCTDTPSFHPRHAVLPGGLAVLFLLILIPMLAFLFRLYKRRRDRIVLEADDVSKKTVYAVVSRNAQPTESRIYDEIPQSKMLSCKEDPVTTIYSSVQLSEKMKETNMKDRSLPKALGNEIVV

platelet-derived soluble CD84 (sCD84) in the releasate of GPVI-stimulated WT mouse platelets (from UniProt Q18PI6 22-221) (receptor)
distance and speed of migrating T cells (migration assay with platelet releasate): 25%
